This note sets out measurements from US20210002376A1 (UNIVERSIT T STUTTGART, published 2021).

What is called EC50 is the midpoint of the concentration-response curve. A low value points to an effect from little substance.

The target in test [1] is T1, TNFR2-Fc (Enbrel) fusion protein (UniProt P20333 23-257).
T1 construct: extracellular domain; Commercial product (Enbrel) used as coated antigen
T1 sequence (looked up): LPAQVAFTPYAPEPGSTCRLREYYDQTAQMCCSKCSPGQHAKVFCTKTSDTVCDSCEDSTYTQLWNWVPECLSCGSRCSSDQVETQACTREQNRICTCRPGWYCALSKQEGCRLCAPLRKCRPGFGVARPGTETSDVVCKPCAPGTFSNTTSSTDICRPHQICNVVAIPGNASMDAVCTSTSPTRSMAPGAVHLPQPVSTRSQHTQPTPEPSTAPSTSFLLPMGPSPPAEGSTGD
The test is described as follows: ELISA, coated TNFR2-Fc (Enbrel), anti-human Fab-HRP.

For test [2], the target named is T2, TNFR2 (on Kym-1 cells) (UniProt P20333 23-461, limits assumed).
T2 sequence (looked up): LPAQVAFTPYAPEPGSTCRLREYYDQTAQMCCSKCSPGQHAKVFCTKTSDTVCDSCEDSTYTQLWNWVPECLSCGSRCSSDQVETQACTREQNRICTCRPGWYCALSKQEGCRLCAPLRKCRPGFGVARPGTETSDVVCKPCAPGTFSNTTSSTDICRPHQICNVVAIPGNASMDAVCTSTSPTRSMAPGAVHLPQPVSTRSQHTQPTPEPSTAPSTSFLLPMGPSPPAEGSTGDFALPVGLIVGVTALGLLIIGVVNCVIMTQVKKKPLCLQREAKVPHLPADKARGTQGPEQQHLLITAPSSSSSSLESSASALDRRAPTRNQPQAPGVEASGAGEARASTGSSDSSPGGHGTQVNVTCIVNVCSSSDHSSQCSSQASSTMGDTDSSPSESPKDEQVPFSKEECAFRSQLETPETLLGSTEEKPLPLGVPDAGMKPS
The test can be described thus: cell-based or functional assay.

For test [3], the target named is T3, EGFR-His (UniProt P00533 25-645).
T3 construct: range 25-645; also called His-tagged EGFR
The test can be described thus: ELISA, coated His-tagged EGFR ECD, anti-human Fc-HRP. On the technique in general: An ELISA detects its analyte on a solid surface through an enzyme-linked reagent.

Test [4] has as its target T4, HER3-His (UniProt P21860 21-643).
T4 construct: range 21-643; also called His-tagged HER3; second antigen
The test can be described thus: ELISA, coated His-tagged HER3 ECD, anti-human Fc-HRP.

Test [5] has as its target T4, HER3-His. The test can be described thus: simultaneous binding ELISA: coated EGFR-Fc, Db titrated, HER3-His 300 nM added, anti-His-HRP.
The target of test [6] is T5, HER3 (on tumor cells) (UniProt P21860 20-1342, limits assumed).
T5 construct: whole, on cells; also called HER3 on MCF-7, SKBR-3 (SKBR3) and FaDu cells
The test can be described thus: flow cytometry on SKBR-3 cells.

For test [7], the target named is T5, HER3 (on tumor cells). The test can be described thus: flow cytometry on MCF-7 cells. Background: A flow cytometer gives signals particle by particle.
Test [8] concerns the target T6, HER3-Fc fusion protein (UniProt P21860 21-643).
T6 construct: range 21-643; Coated antigen in ELISA; not shown: Fc part of the fusion, not described
The test is described as follows: ELISA, coated HER3-Fc, anti-human Fab-HRP.

In test [9] the target is T5, HER3 (on tumor cells). The test can be described thus: flow cytometry on FaDu cells.
Test [10] concerns the target T4, HER3-His. The test can be described thus: simultaneous binding, flow cytometry: molecule titrated on CD3-positive Jurkat cells, HER3-His 300 nM added, PE anti-His.
Test [11] concerns the target T7, CD3 (on Jurkat cells) (UniProt P07766 23-207).
T7 construct: whole, on cells; CD3 is a complex of several chains; only CD3 is printed; also called CD3-positive Jurkat cells; CD3-expressing cells (Jurkat)
The test can be described thus: flow cytometry on CD3-expressing Jurkat cells.

For test [12], the target named is T5, HER3 (on tumor cells). The test can be described thus: flow cytometry on HER3-expressing SKBR-3 cells.

Numbering of substitutions follows the chain as printed.

T7 sequence (P07766 23-207): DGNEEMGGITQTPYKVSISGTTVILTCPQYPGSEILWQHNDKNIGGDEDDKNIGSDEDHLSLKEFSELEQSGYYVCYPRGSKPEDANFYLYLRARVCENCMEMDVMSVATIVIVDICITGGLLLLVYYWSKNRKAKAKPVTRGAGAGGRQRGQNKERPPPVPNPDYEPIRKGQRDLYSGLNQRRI

B1: anti-TNFR2 IgG (antibody, V domains shown)
VH: QVQLQQSGAEVKKPGSAVKVSCKASGGTFSSYAISWVRQAPGQGLEWMGRIIPILGIANYAQKFQGRVTITADKSTSTAYMELSSLRSEDTAVYYCARDGLGDAFDIWGQGTMVTVSS
VL: QSALTQPRSVSGSPGQSITISCTGTSSDVGGYNYVSWYQQHPGKAPKLMIYDVSNRPSGVSNRFSGSKSGNTASLTISGLQAEDEADYYCSSYTSSSTLVVFGGGTKLTVL
For the molecule B1, the midpoint of the response in test [1], the EC50, lay at 0.7 nM. The “EC50 of cell death induction, Kym-1 cells, MTT assay after 24 hours” value in test [2] was about 30 nM.

B2: Db3-43xhu225-EHD2-Fc (bispecific antibody)
heavy: EVQLVESGGGLVQPGGSLRLSCAASGFSLTNYGVHWVRQAPGKGLEWLGVIWSGGNTDYNTPFTSRFTISRDNSKNTLYLQMNSLRAEDTAVYYCARALTYYDYEFAYWGQGTTVTVSSGGGGSQAGLTQPPAVSVAPGQTASITCGRDNIGSRSVHWYQQKPGQAPVLVVYDDSDRPAGIPERFSGSNYENTATLTISRVEAGDEADYYCQVWGITSDHVVFGGGTKLTVLASDFTPPTVKILQSSCDGGGHFPPTIQLLCLVSGYTPGTINITWLEDGQVMDVDLSTASTTQEGELASTQSELTLSQKHWLSDRTYTCQVTYQGHTFEDSTKKCADSNDKTHTCPPCPAPPVAGPSVFLFPPKPKDTLMISRTPEVTCVVVDVSHEDPEVKFNWYVDGVEVHNAKTKPREEQYNSTYRVVSVLTVLHQDWLNGKEYKCKVSNKGLPSSIEKTISKAKGQPREPQVYTLPPSRDELTKNQVSLTCLVKGFYPSDIAVEWESNGQPENNYKTTPPVLDSDGSFFLYSKLTVDKSRWQQGNVFSCSVMHEALHNHYTQKSLSLSPGK
light: QVQLQQSGPGLVKPSQTLSLTCAISGDSVSSNRAAWNWIRQSPSRGLEWLGRTYYRSKWYNDYAQSLKSRITINPDTPKNQFSLQLNSVTPEDTAVYYCARDGQLGLDALDIWGQGTMVTVSSGGGGSDIQLTQSPSFLSASVGDRVTITCRASQSIGTNIHWYQQKPGKAPKLLIKYASESISGVPSRFSGSGSGTEFTLTISSLQPEDFATYYCQQNNNWPTTFGAGTKLEIKRTDFTPPTVKILQSSCDGGGHFPPTIQLLCLVSGYTPGTINITWLEDGQVMDVDLSTASTTQEGELASTQSELTLSQKHWLSDRTYTCQVTYQGHTFEDSTKKCADSN
notes: homodimeric Fc part; also called bispecific, tetravalent diabody fusion protein using EHD2
Consider B2, for which the results for the EC50 in test [3], in test [4] and in test [5] were 0.28 nM, 0.35 nM and 1.4 nM, respectively.

B3: Db3-43xhu225-het1EHD2-Fc (bispecific antibody)
heavy: B2 heavy with C336S
light: B2 light with C251S, N276Q
notes: also called Db3-43xhu225-hetEHD2-Fc
B3: the EC50 in test [3] amounted to 0.24 nM; in test [4], 0.34 nM; in test [5], 0.56 nM.

B4: 3M6-IgG (antibody, V domains shown)
VH: EVQLLESGGGLVQPGGSLRLSCAASGFTFSHYVMAWVRQAPGKGLEWVSSISSSGGWTLYADSVKGRFTISRDNSKNTLYLQMNSLRAEDTAVYYCTRGLKMATIFDYWGQGTLVTVSS
VL: QSALTQPASVSGSPGQSITISCTGTSSDVGSYNVVSWYQQHPGKAPKLIIYEVSQRPSGVSNRFSGSKSGNTASLTISGLQTEDEADYYCSSYAGSSIFVIFGGGTKVTVL
With B4, the EC50 in test [6] turned out to be 0.44 nM; in test [7], 1.18 nM; in [8] it was 0.7 nM; in [9] it was 7.5 nM.

B5: Db3-43xhuU3-EHD2-Fab3-43-Fckih (bispecific antibody)
light 1: not shown
heavy 1: QVQLVQSGAEVKKPGSSVKVSCKASGGTFSGYTMNWVRQAPGQGLEWMGLINPYKGVSTYNGKFKDRVTITADKSTSTAYMELSSLRSEDTAVYYCARSGYYGDSDWYFDVWGQGTLVTVSSGGGGSQAGLTQPPAVSVAPGQTASITCGRDNIGSRSVHWYQQKPGQAPVLVVYDDSDRPAGIPERFSGSNYENTATLTISRVEAGDEADYYCQVWGITSDHVVFGGGTKLTVLASDFTPPTVKILQSSCDGGGHFPPTIQLLCLVSGYTPGTINITWLEDGQVMDVDLSTASTTQEGELASTQSELTLSQKHWLSDRTYTCQVTYQGHTFEDSTKKCADSNDKTHTCPPCPAPPVAGPSVFLFPPKPKDTLMISRTPEVTCVVVDVSHEDPEVKFNWYVDGVEVHNAKTKPREEQYNSTYRVVSVLTVLHQDWLNGKEYKCKVSNKGLPSSIEKTISKAKGQPREPQVCTLPPSRDELTKNQVSLSCAVKGFYPSDIAVEWESNGQPENNYKTTPPVLDSDGSFFLVSKLTVDKSRWQQGNVFSCSVMHEALHNHYTQKSLSLSPGK
heavy 2: QVQLQQSGPGLVKPSQTLSLTCAISGDSVSSNRAAWNWIRQSPSRGLEWLGRTYYRSKWYNDYAQSLKSRITINPDTPKNQFSLQLNSVTPEDTAVYYCARDGQLGLDALDIWGQGTMVTVSSASTKGPSVFPLAPSSKSTSGGTAALGCLVKDYFPEPVTVSWNSGALTSGVHTFPAVLQSSGLYSLSSVVTVPSSSLGTQTYICNVNHKPSNTKVDKKVEPKSCGTDKTHTCPPCPAPPVAGPSVFLFPPKPKDTLMISRTPEVTCVVVDVSHEDPEVKFNWYVDGVEVHNAKTKPREEQYNSTYRVVSVLTVLHQDWLNGKEYKCKVSNKGLPSSIEKTISKAKGQPREPQVYTLPPCRDELTKNQVSLWCLVKGFYPSDIAVEWESNGQPENNYKTTPPVLDSDGSFFLYSKLTVDKSRWQQGNVFSCSVMHEALHNHYTQKSLSLSPGK
light 2: QAGLTQPPAVSVAPGQTASITCGRDNIGSRSVHWYQQKPGQAPVLVVYDDSDRPAGIPERFSGSNYENTATLTISRVEAGDEADYYCQVWGITSDHVVFGGGTKLTVLGQPKAAPSVTLFPPSSEELQANKATLVCLISDFYPGAVTVAWKADSSPVKAGVETTTPSKQSNNKYAASSYLSLTPEQWKSHRSYSCQVTHEGSTVEKTVAPTECS
notes: Four different polypeptides; also called bispecific, trivalent Diabody-Fab fusion protein targeting HER3 (3-43) and CD3 (huU3)
As to B5, the EC50 is 13.8 nM in [10], 9.5 nM in test [11] and 0.03 nM in test [12].

B6: Db3-43xhuU3-EHD2-scFv3-43-Fckih (bispecific antibody)
light: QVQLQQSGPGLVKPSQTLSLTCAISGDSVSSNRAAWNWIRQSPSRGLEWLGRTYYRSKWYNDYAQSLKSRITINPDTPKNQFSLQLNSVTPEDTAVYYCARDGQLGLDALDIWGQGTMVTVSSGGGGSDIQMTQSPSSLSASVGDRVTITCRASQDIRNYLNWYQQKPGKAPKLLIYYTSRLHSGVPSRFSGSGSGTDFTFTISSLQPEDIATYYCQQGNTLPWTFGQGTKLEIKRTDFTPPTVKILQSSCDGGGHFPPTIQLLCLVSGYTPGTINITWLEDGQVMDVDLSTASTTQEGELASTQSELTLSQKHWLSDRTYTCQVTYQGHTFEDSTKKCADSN
heavy: B5 heavy 1
chain: QVQLQQSGPGLVKPSQTLSLTCAISGDSVSSNRAAWNWIRQSPSRGLEWLGRTYYRSKWYNDYAQSLKSRITINPDTPKNQFSLQLNSVTPEDTAVYYCARDGQLGLDALDIWGQGTMVTVSSGGGGSGGGGSGGGGSQAGLTQPPAVSVAPGQTASITCGRDNIGSRSVHWYQQKPGQAPVLVVYDDSDRPAGIPERFSGSNYENTATLTISRVEAGDEADYYCQVWGITSDHVVFGGGTKLTVLAAADKTHTCPPCPAPPVAGPSVFLFPPKPKDTLMISRTPEVTCVVVDVSHEDPEVKFNWYVDGVEVHNAKTKPREEQYNSTYRVVSVLTVLHQDWLNGKEYKCKVSNKGLPSSIEKTISKAKGQPREPQVYTLPPCRDELTKNQVSLWCLVKGFYPSDIAVEWESNGQPENNYKTTPPVLDSDGSFFLYSKLTVDKSRWQQGNVFSCSVMHEALHNHYTQKSLSLSPGK
notes: Three different polypeptides; also called bispecific, trivalent Diabody-scFv fusion protein targeting HER3 (3-43) and CD3 (huU3)
With B6, the EC50 in test [10] amounted to 9 nM; in test [11], 8.1 nM; in test [12] it was 0.037 nM.

B7: hu225-IgG (antibody, V domains shown)
VH: EVQLVESGGGLVQPGGSLRLSCAASGFSLTNYGVHWVRQAPGKGLEWLGVIWSGGNTDYNTPFTSRFTISRDNSKNTLYLQMNSLRAEDTAVYYCARALTYYDYEFAYWGQGTTVTVSS
VL: DIQLTQSPSFLSASVGDRVTITCRASQSIGTNIHWYQQKPGKAPKLLIKYASESISGVPSRFSGSGSGTEFTLTISSLQPEDFATYYCQQNNNWPTTFGAGTKLEIK
Turning to B7, the concentration for a half-maximal effect (EC50) in test [3] was determined as 0.23 nM.
